We go through three molecules from patent US20180318435A1 (UNITED STATES OF AMERICA AS REPRESENTED BY THE SECRETARY …, published 2018).

For assay [1], the target named is T1, BCMA-rFc fusion protein (extracellular domain of human BCMA, residues 1-54, fused to rabbit IgG Fc) (human; rabbit, UniProt Q02223 1-54).
T1 construct: range 1-54; also called recombinant BCMA-rFc; not shown: rabbit IgG heavy chain hinge region and Fc region (CH2 and CH3 domains), from vector pFUSE-rFc1 (InvivoGen); limits not
T1 sequence (looked up): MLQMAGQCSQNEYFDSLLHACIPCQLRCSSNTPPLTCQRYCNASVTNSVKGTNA
Description: bio-layer interferometry (BLITZ), BCMA-rFc immobilized by amine coupling, mAb in solution. On the technique in general: BLI is a label-free optical method that tracks binding on a fibre tip over time.

Assay [2] addresses BCMA (target of the LMB70 affinity measurement; not named, form not stated) (UniProt Q02223). Put plainly: affinity measurement after the first labeling; method and target not stated.
The target of assay [3] is full-length human BCMA (TNFRSF17, CD269) on the cell surface (human) (UniProt Q02223). Description: cell-based or functional assay.
For assay [4], the target named is T2, full-length human BCMA (TNFRSF17, CD269) on the cell surface (human, UniProt Q02223 1-184).
T2 sequence (looked up): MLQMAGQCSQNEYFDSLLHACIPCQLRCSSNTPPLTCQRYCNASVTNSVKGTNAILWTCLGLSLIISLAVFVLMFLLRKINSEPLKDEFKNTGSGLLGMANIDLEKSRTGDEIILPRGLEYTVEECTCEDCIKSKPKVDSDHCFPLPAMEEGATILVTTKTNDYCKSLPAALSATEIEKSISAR
Description: cell-based or functional assay.

B1: BM24 anti-BCMA monoclonal antibody (antibody, V domains shown)
VH: EVQLQQSGPELVKPGASVKMSCKASGNTLTNYVIHWMKQMPGQGLDWIGYILPYNDLTKYNEKFTGKATLTSDKSSSSAYMELNSLTSEDSAVYYCTRWDWDGFFDPWGQGTTLTVSS
VL: DIVMTQSPLSLPVSLGDQASISCRSTQSLVHSNGNTHLHWYLQRPGQSPKLLIYSVSNRFSEVPDRFSASGSGTDFTLKISRVEAEDLGVYFCSQTSHIPYTFGGGTKLEIKR
notes: Mouse hybridoma mAb, IgG1 with a kappa light chain
With B1, in assay [1], the Kd was under 1 pM, the koff was under 1e-07 s⁻¹ and the kon was 297000 M⁻¹ s⁻¹.

B2: LMB70: BM306-Fab-LR-GGS immunotoxin (protein, part only; not given: Fab constant domains and toxin part)
VH: EVQLQQSGPELVKPGASVKISCKTSGYTFTEYTINWVKQSHGKSLEWIGDIYPDNYNIRYNQKFKGKATLTVDKSSSTAYMELRSLSSEDSAIYYCANHDFFVFWGQGTLVTVSA
VL: DIQMTQATSSLSASLGDRVTINCRTSQDISNHLNWYQQKPDGTVKLLIYYTSRLQSGVPSRFSGSGSGTDYSLTISNLEQEDIGTYFCHQGNTLPPTFGGGTKLEIK
modifications: Fused to a Pseudomonas exotoxin domain III variant (PE-LR-GGS), which the letters do not carry.
Regarding B2, the Bmax in assay [2] was determined as 2220. In addition, in assay [3], the IC50 (ng/ml), WST assay, H929 cells came out at 1.1 ng/mL; the IC50 (ng/ml), WST assay, JJN-3 cells was found to be 4 ng/mL; the IC50 (ng/ml), WST assay, KMS-18 cells was 65 ng/mL; the IC50 (ng/ml), WST assay, LP-1 cells was 20 ng/mL. Moreover, in assay [3], the IC50 (ng/ml), WST assay, RPMI-8226 cells was 5.1 ng/mL; the IC50 (ng/ml), WST assay, U266B cells is 5 ng/mL; the IC50, WST assay, H929 cells is 1 to 1.5 ng/mL.

B3: BM306 anti-BCMA monoclonal antibody (antibody, V domains shown)
VH: EVQLQQSGPELVKPGASVKISCKTSGYTFTEYTINWVKQSHGKSLEWIGDIYPDNYNIRYNQKFKGKATLTVDKSSSTAYMELRSLSSEDSAIYYCANHDFFVFWGQGTLVTVSA
VL: DIQMTQATSSLSASLGDRVTINCRTSQDISNHLNWYQQKPDGTVKLLIYYTSRLQSGVPSRFSGSGSGTDYSLTISNLEQEDIGTYFCHQGNTLPPTFGGGTKLEIKR
notes: as for B1
Turning to B3, in assay [1], the Kd was under 1 pM, the koff is under 1e-07 s⁻¹ and the kon turned out to be 415000 M⁻¹ s⁻¹. Moreover, in assay [4], the “IC50 (ng/ml), WST assay, H929 cells” value was over 1000 ng/mL; the “IC50 (ng/ml), WST assay, JJN-3 cells” value was over 1000 ng/mL; the “IC50 (ng/ml), WST assay, RPMI-8226 cells” value was over 1000 ng/mL; the “IC50 (ng/ml), WST assay, U266B cells” value was over 1000 ng/mL.

Usually Kd stands for the concentration at which binding is half-saturated. Low readings indicate higher affinity, high ones lower affinity. In general, koff refers to a measure of how fast the partners let go of each other. What is called kon is the rate constant with which the complex forms. A high value points to fast association.
